T1: human IL-36R on cells (HEK293 cells transfected with full-length human IL-36R); NCI/ADR-RES cells; human … (human, UniProt Q9HB29 20-575)
T1 sequence (looked up): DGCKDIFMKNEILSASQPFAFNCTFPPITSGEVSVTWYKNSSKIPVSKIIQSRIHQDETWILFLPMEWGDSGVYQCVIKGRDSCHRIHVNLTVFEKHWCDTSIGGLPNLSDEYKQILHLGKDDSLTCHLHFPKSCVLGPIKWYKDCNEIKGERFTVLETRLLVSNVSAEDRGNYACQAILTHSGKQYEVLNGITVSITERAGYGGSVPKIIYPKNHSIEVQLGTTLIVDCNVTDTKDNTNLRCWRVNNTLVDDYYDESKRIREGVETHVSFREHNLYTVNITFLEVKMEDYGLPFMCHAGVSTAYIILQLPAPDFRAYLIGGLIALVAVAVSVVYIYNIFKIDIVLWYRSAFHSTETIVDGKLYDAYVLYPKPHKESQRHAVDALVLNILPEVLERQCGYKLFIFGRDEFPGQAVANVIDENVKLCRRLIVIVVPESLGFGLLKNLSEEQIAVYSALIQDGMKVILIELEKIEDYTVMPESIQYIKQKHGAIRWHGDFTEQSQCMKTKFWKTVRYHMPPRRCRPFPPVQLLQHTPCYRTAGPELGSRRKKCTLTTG


Biological target: cynomolgus IL-36R on BaF/3 cells (cynomolgus)
Assay: cell-based or functional assay

Row | Binder | IC90 pNFκB, trun-IL-36a, BaF/3 cynomolgus IL-36R cells | IC90 pNFκB, trun-IL-36b, BaF/3 cynomolgus IL-36R cells | IC90 pNFκB, trun-IL-36g, BaF/3 cynomolgus IL-36R cells
1 | Mouse 81B4 (antibody 81B4) (antibody, V domains shown) VH: QVQLQQPGADFVRPGASMRLSCKASGYSFTSSWIHWVKQRPGQGLEWIGEINPGNVRTNYNENFRNKATLTVDKSSTTAYMQLRSLTSADSAVYYCTVVFYGEPYFPYWGQGTLVTVSA VL: QIVLTQSPAIMSASLGERVTMTCTASSSVSSSYFHWYQQKPGSSPKLWIYRTSNLASGVPGRFSGSGSGTSYSLTISSMEAEDAATYYCHQFHRSPLTFGAGTKLELK | 2.4 nM | 3.5 nM | 5.1 nM
2 | Mouse 33D10 (antibody 33D10) (antibody, V domains shown) VH: QVQLQQSGTELLKPGASVKLSCKASGNTVTSYWMHWVKQRPGQGLEWIGEILPSTGRTNYNENFKGKAMLTVDKSSSTAYMQLSSLASEDSAVYYCTIVYFGNPWFAYWGQGTLVTVSA VL: QIVLTQSPAIMSASLGERVTMTCTASSSVSSSYLHWYQKKPGSSPKLWVYSTSNLASGVPVRFSGSGSGTSYSLTISSMEAEDAATYYCHQHHRSPVTFGSGTKLEMK | > 4 µM | > 333 nM | > 333 nM
3 | Mouse 73C5 (antibody 73C5) (antibody, V domains shown) VH: QVQLKESGPGLVAPSQSLSITCTVSGFSLTNYAVHWVRQFPGKGLEWLGVIWSDGSTDFNAPFKSRLSINKDNSKSQVFFKMNSLQIDDTAIYYCARKGGYSGSWFAYWGQGTLVTVSA VL: DIVMTQSQKFLSTSVGVRVSVTCKASQDVGTNVLWYQQKIGQSPKPLIYSASYRHSGVPDRFTGSGSGTDFTLIISNVQSEDLAEYFCQQYSRYPLTFGPGTKLELK | 0.2 nM | 1.6 nM | 1.5 nM
4 | Mouse 73F6 (antibody 73F6) (antibody, V domains shown) VH: QVQLKESGPGLVAPSQSLSITCTVSGFSLTNYAVHWVRQFPGKGLEWLGVIWSDGSTDYNAPFKSRLSINKDNSKSQVFFKMNSLQTDDTAIYYCARKGGYSGSWFAYWGQGTLVTVSA VL: DIVMTQSQKFLSTSVGVRVSVTCKASQDVGTNVLWYQQKIGQSPKALIYSASYRHSGVPDRFTGSGSGTDFTLIITNVQSEDLAEYFCQQYSRYPLTFGPGTKLELK | 0.5 nM | 0.7 nM | 0.8 nM
5 | antibody 89A12 (antibody, V domains shown) VH: EVQLQQSGAELVRPGASVRLSCTASGFNIKDDYIHWVRQRPKQGLEWLGRIDPANGNTKYDPRFQDKATITADTSSNTAYLHLSSLTSEDTAVYYCAKSFPDNYYSYDDAFAYWGQGTLVTVSA VL: DIQMTQSPASQSASLGESVTFSCLASQTIGTWLGWYQQKPGKSPQLLIYRATSLADGVPSRFSGSGSGTNFSFKISSLQAEDLASYYCQQLYSGPYTFGGGTKLEIR | > 4 µM | > 333 nM | > 333 nM
6 | antibody 67E7 (antibody, V domains shown) VH: EVQLQQSGAEFVRPGASVKFSCTASGFNIKDDYIHWVRQRPEQGLEWVGRIDPANGNTKYAPKFQDKATITADTSSNTAYLQLSSLTSEDTAVYYCAKSFPNNYYSYDDAFAYWGQGTLVTVSA VL: DIQMTQSPASQSASLGESVTFTCLASQTIGTWLGWYQQKPGKSPQLLIYRSTTLADGVPSRFSGSGSGTKFSFKISSLQAADFASYYCQQLYSAPYTFGGGTKLEIR | > 4 µM | > 333 nM | > 333 nM
7 | antibody 172C8 (antibody, V domains shown) VH: EVQLQQSGPELVKPGASVKLSCKASGYTFTDNYMNWVRQSHGKSLEWIGRVNPSNGDTKYNQNFKGKATLTVDKSLSTAYMQLNGLTSEDSAVYYCGRTKNFYSSYSYDDAMDYWGQGTSVTVSS VL: DIQMTQSPASQSASLGESVTFTCLASQTIGTWLAWYQQRPGKSPQLLIYAATSLADGVPSRFSGSGSGTQFSFNIRSLQAEDFASYYCQQVYTTPLTFGGGTKLEIK | > 4 µM | > 333 nM | > 333 nM
8 | antibody 76E10 (antibody, V domains shown) VH: QVQLKESGPVLVAPSQSLSITCTVSGFSLTNYGVHWVRQPPGKGLEWLGVIWPVGSTNYNSALMSRLSIHKDNSKSQVFLRMNSLQTDDTAIYYCAKMDWDDFFDYWGQGTTLTVSS VL: DIVMTQSQKFMSATVGGRVNITCKASQNVGRAVAWYQQKPGQSPKLLTHSASNRYTGVPDRFTGSGSGTDFTLTITNMQSEDLADYFCQQYSSYPLTFGAGTKLDLK | > 4 µM | > 333 nM | > 333 nM
9 | Mouse 78C8 (antibody 78C8) (antibody, V domains shown) VH: QVQLKESGPVLVAPSQSLSITCTVSGFSLTKFGVHWIRQTPGKGLEWLGVIWAGGPTNYNSALMSRLTISKDISQSQVFLRIDSLQTDDTAMYYCAKQIYYSTLVDYWGQGTSVTVSS VL: DVLLTQTPLSLPVSLGDQASISCRSSQNIVHSNGNTYLQWYLQKPGQSPKLLIYKVSNRFSGVPDRFSGSGSGTDFTLKISRVEAEDLGVYYCFQGSHVPFTFGAGTKLELK | 1 nM | 2.1 nM | 1.5 nM
10 | Mouse 81A1 (antibody 81A1) (antibody, V domains shown) VH: QVQLKESGPGLVAPSQSLFITCTVSGFSLSSYEINWVRQVPGKGLEWLGVIWTGITTNYNSALISRLSISKDNSKSLVFLKMNSLQTDDTAIYYCARGTGTGFYYAMDYWGQGTSVTVSS VL: DIQMTQTTSSLSASLGDRVTISCRASQDIYKYLNWYQQKPDGTLKLLIYYTSGLHSGVPSRFSGSGSGTDFSLTISNLEPEDIATYFCQQDSKFPWTFGGDTKLEIK | 0.6 nM | 0.9 nM | 1 nM

Biological target: T1, human IL-36R on cells (HEK293 cells …)
Assay: cell-based or functional assay

Row | Binder | IC90 pNFκB, trun-IL-36g, human primary keratinocytes (NHK)
11 | Mouse 81B4 (antibody 81B4) (antibody, V domains shown) VH: QVQLQQPGADFVRPGASMRLSCKASGYSFTSSWIHWVKQRPGQGLEWIGEINPGNVRTNYNENFRNKATLTVDKSSTTAYMQLRSLTSADSAVYYCTVVFYGEPYFPYWGQGTLVTVSA VL: QIVLTQSPAIMSASLGERVTMTCTASSSVSSSYFHWYQQKPGSSPKLWIYRTSNLASGVPGRFSGSGSGTSYSLTISSMEAEDAATYYCHQFHRSPLTFGAGTKLELK | 0.5 nM
